Test results reported in PMC3958483, “Fine Specificity and Molecular Competition in SLAM Family Receptor Signalling” (PLoS ONE, 2014).

Tests used:
Test in all cases: SPR; biotinylated phosphopeptides immobilised on streptavidin chip (about 25 RU single, 50 RU tandem motifs); soluble recombinant protein injected; 37°C; HBS-EP; equilibrium binding (Table 4; same-day purification not given)
[1] = biological target: CD244 ITSM2 phosphopeptide (human)
[2] = biological target: CD244 ITSM3 phosphopeptide (human)
[3] = biological target: CD244 ITSM4 phosphopeptide (human)

SAP (recombinant full-length human SAP), sequence (O60880 whole entry): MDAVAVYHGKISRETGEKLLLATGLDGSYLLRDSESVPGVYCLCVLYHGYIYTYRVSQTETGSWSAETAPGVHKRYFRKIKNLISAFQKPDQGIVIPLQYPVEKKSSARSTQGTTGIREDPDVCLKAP

SAP (recombinant full-length human SAP) (from UniProt O60880 1-128) (natural protein)
Kd [1]: 20 nM | Kd [2]: 80 nM | Kd [3]: 1900 nM
